{
  "source": "patent US20240425837A1",
  "about": "(Novo Nordisk, published 2024)",
  "binders": {"B1": {"name": "Cmpd #1 (monovalent anti-FX VHH polypeptide, VHH-1.1) (VHH)", "VHH": "EVQLVESGGGLVQPGGSLRLSCAASGSIGAFDAMGWYRQAPGKQRELVAGIMVSRGNTNYTDSVKGRFTISRDNAKNTVYLQMNSLKPEDTAVYYCKAVKRPGPGYLEVWGQGTLVTVSS", "notes": "no protractor; FLAG-tagged in the peptide ELISA"}},
  "assay_in_all_cases": "ELISA, biotinylated 12-mer peptide on streptavidin, 2 ug/mL FLAG-tagged VHH, anti-FLAG-HRP",
  "key": {"[1]": {"molecular_target": "T1, FX activation peptide 12-mer AQATSSSGEAPD (SEQ ID NO:695) (human)", "T1 peptide": "AQATSSSGEAPD-biotin", "experimental": "(§1) To determine whether the binding epitope of the anti-FX VHH polypeptide designated “cmpd #1” are located inside the activation peptide (AP) of human FX (SEQ ID NO:2), an ELISA assay was setup. 41 unique 12-mer peptide fragments spanning the 52 residues of the activation peptide with one amino acid spacing were immobilized in microtiter plate wells followed by incubation with the VHH polypeptide to be tested, and detection of bound ligand was performed by addition of a secondary HRP-labelled antibody.\n(§2) The peptides were C-terminally conjugated to biotin and 50 μL of 1 μg/mL peptide solution was used for immobilization in discrete wells of the microtiter plate which was pre-coated with 1 μg/mL streptavidin. Each well was washed with washing buffer (10 mM Tris, 150 mM NaCl, 2.5 mM CaCl₂, 0.05% Tween 20, pH 8.60) followed by addition of 50 μL of 2 μg/mL FLAG-tagged anti-FX VHH polypeptide or IgG antibody to be tested. After 1 hour non-bound VHH polypeptide was washed off using washing buffer.\n(§3) Bound anti-FX activation peptide ligand was detected by first binding a HRP-labelled secondary antibody (for FLAG-tagged VHH polypeptide: Anti-FLAG mAb M2-Peroxidase (HRP) (Sigma Aldrich, US) for 1 hour, and then adding 100 μL TMB-1 ELISA substrate (Kem-En-Tec Diagnostics, Denmark)."}, "[2]": {"molecular_target": "T2, FX activation peptide 12-mer EAPDSITWKPYD (SEQ ID NO:703) (human)", "T2 peptide": "EAPDSITWKPYD-biotin", "experimental": "as §1, §2, §3"}, "[3]": {"molecular_target": "T3, FX activation peptide 12-mer DLDPTENPFDLL (SEQ ID NO:717) (human)", "T3 peptide": "DLDPTENPFDLL-biotin", "experimental": "as §1, §2, §3"}, "[4]": {"molecular_target": "T4, FX activation peptide 12-mer DPTENPFDLLDF (SEQ ID NO:719) (human)", "T4 peptide": "DPTENPFDLLDF-biotin", "experimental": "as §1, §2, §3"}},
  "note": "No end group written: not given here.",
  "data": [
    {"binder": "B1", "values": [
      {"measurement": "ELISA signal normalized relative to the background signal", "setting": "[1]", "result": "0.97 fold of background"},
      {"measurement": "ELISA signal normalized relative to the background signal", "setting": "[2]", "result": "0.97 fold of background"},
      {"measurement": "ELISA signal normalized relative to the background signal", "setting": "[3]", "result": "1 fold of background"},
      {"measurement": "ELISA signal normalized relative to the background signal", "setting": "[4]", "result": "4.16 fold of background"}
    ]}
  ]
}
